{"source": "paper PMC5802732", "about": "“A chiral selectivity relaxed paralog of DTD for proofreading tRNA mischarging in Animalia” (Nature Communications, 2018)", "proteins": {"B1": {"name": "Animalia-specific tRNA deacylase from Mus musculus (enzyme)", "chain": "MADGGRVAQARALLQQCLHARLQVRPADGDAAAQWVEIRRGLVIYVCFFKGADTDLLPKMVNTLLNVKLSETETGKHVSILDLPGDVLIIPQATLGGRVKGRSMQYHSNSGKEEGSELYSQFVSLCEKAVANNTKSVEAGVAVAHGTYGNRQVLKLDTNGPYTHLIEF", "notes": "ATD (Animalia-specific tRNA deacylase, annotated in databases as probable DTD2) from Mus musculus; un-tagged protein used for crystallisation; gene PCR-amplified from cDNA into pET-28b; Homodimer in the crystal (two monomers per asymmetric unit, 325 residues modelled); also called MmATD; ATD; source: E. coli Rosetta(DE3), purified (cation exchange chromatography, SEC)"}}, "target": "the molecule itself", "test": "crystal structure; un-tagged MmATD alone; sitting-drop vapor diffusion, reservoir 0.1 M Bicine (pH 8.0) and 15% PEG1500; 1.86 Å; two monomers per asymmetric unit"}
{"protein": "B1", "values": [{"measurement": "binding result", "result": "binds"}]}
